Legend:
SDN1 ΔC = target: T1, SDN1 ΔC (Arabidopsis thaliana, UniProt A3KPE8 2-302); test: UV crosslinking (5-iodoU, 312 nm); EMSA: 50 mM Tris pH 8.0, 100 mM NaCl, 1 mM DTT, no Mg2+, 2 nM RNA, on ice 30 min, 8% native PAGE in 0.5x TBE; NMR: 50 mM Na2HPO4 pH 7.4, 100 mM NaCl, 10% D2O; conditions: protein: recombinant, tags: His-SUMO tag removed
T1 sequence: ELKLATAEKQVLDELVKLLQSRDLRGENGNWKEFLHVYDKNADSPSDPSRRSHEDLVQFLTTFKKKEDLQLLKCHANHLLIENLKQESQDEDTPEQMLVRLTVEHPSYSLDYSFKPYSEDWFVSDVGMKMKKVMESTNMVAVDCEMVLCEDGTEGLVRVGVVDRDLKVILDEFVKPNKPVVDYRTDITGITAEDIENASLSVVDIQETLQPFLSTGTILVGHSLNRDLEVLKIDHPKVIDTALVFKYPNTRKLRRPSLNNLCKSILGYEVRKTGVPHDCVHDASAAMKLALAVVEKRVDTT

SDN1 wild type [1] = target: T2, SDN1 wild type (Arabidopsis thaliana, UniProt A3KPE8 2-409); test: as above; conditions: protein: recombinant, tags: His-SUMO tag removed
T2 sequence: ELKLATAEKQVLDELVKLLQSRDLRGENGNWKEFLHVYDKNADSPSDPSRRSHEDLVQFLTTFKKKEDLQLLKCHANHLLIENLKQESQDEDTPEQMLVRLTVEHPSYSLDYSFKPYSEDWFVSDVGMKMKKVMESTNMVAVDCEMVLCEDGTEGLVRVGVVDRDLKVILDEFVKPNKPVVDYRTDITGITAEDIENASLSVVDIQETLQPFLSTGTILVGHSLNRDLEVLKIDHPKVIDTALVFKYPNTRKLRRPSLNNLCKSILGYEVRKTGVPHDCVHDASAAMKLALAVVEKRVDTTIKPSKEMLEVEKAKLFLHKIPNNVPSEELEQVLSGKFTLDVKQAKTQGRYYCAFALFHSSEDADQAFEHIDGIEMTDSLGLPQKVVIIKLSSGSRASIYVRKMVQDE

SDN1 wild type [2] = target: T2, SDN1 wild type; test: EMSA; no Mg2+; Kd,app in µM range, value only in figure; EMSA: 50 mM Tris pH 8.0, 100 mM NaCl, 1 mM DTT, no Mg2+, 2 nM RNA, on ice 30 min, 8% native PAGE in 0.5x TBE; NMR: 50 mM Na2HPO4 pH 7.4, 100 mM NaCl, 10% D2O; conditions: protein: recombinant; tags: His-SUMO tag removed; label: 5' 32P; single strand
SDN1 wild type [3] = target: T2, SDN1 wild type; test: crystal structure; 2 Mg2+; 9 of 10 nt seen, 2.8 Å; EMSA: 50 mM Tris pH 8.0, 100 mM NaCl, 1 mM DTT, no Mg2+, 2 nM RNA, on ice 30 min, 8% native PAGE in 0.5x TBE; NMR: 50 mM Na2HPO4 pH 7.4, 100 mM NaCl, 10% D2O; conditions: protein: recombinant; tags: His-SUMO tag removed; single strand
SDN1 RRM (NMR) = target: T3, SDN1 RRM (NMR) (Arabidopsis thaliana, UniProt A3KPE8 305-409); test: NMR titration; EMSA: 50 mM Tris pH 8.0, 100 mM NaCl, 1 mM DTT, no Mg2+, 2 nM RNA, on ice 30 min, 8% native PAGE in 0.5x TBE; NMR: 50 mM Na2HPO4 pH 7.4, 100 mM NaCl, 10% D2O; conditions: protein: recombinant; tags: His-SUMO tag removed; 15N-labeled; single strand
T3 sequence: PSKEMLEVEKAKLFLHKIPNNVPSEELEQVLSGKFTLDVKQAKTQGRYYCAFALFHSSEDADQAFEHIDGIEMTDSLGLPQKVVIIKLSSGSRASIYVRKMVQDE

[4] = label: 5' 32P on target strand, unpaired miR166 3' end (T6-type), target 3' overhang 4 nt

## GAUUCCCUUGAAGCUUGGUCCGGAUUA (ssRNA, 5-iodoU at 25,26) [3'-IUU RNA]
SDN1 ΔC; label: 32P, single strand
  binding result: binds
SDN1 wild type [1]; label: 32P, single strand
  binding result: binds

## UUCGCUUGCAGAGAGAAAUCAC (ssRNA) [miR173 (22 nt RNA)]
SDN1 wild type [2]
  binding result: binds

## AGCCCAUUAG (ssRNA) [10 nt ssRNA (crystal, NMR)]
SDN1 wild type [3]
  binding result: binds
SDN1 RRM (NMR)
  binding result: binds

B1: miR166:5'-IUU (dsRNA)
RNA 1: UCGGACCAGGCUUCAUCCCCC
RNA 2: GAUUCCCUUGAAGCUUGGUCCGGAUUA
modifications: 5-iodoU at 3,4 of strand 2
SDN1 wild type [1]; [4]
  binding result: binds

## GAUUCCCUUGAAGCUUGGUCCGGAUUA (ssRNA, 5-iodoU at 3,4) [5'-IUU RNA]
SDN1 wild type [1]; label: 32P, single strand
  binding result: binds

## GAUUCCCUUGAAGCUUGGUCCGGAUUA (ssRNA, 5-iodoU at 15,16) [M-IUU RNA]
SDN1 wild type [1]; label: 32P, single strand
  binding result: binds

B2: miR166:3'-IUU (dsRNA)
RNA 1: UCGGACCAGGCUUCAUCCCCC
RNA 2: GAUUCCCUUGAAGCUUGGUCCGGAUUA
modifications: 5-iodoU at 25,26 of strand 2
SDN1 ΔC; [4]
  binding result: binds
SDN1 wild type [1]; [4]
  binding result: binds
